From publication PMC12631009, “Dominant‐Negative Effects of p53 R337 Variants in Li–Fraumeni Syndrome: Impact on Tetramer Formation and Transcriptional Activity” (Chembiochem, 2025)

Target: T1, Biotin-(Aca)2-p53TD (biotin-labeled WT p53 tetramerization domain peptide, residues 319-358) (human, biotin conjugated at the N-terminus with two residues of aminocaproic acid (Aca) as a linker)
T1 construct: p53 tetramerization domain, human, residues 319-358; Held on NeutrAvidin beads in the pull-down; also called Bio-(Aca)2-p53TD; biotin-labeled WT p53TD; source: synthetic peptide (solid-phase synthesis, reverse-phase HPLC purified); not shown: biotin, N-terminal, kept
T1 peptide: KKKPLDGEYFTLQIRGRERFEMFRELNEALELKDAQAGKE
Assay: pull-down; avidin-biotin pull-down: Bio-(Aca)2-p53TD mixed with nonbiotinylated peptide at equimolar concentrations (10 μM) in 50 mM Na phosphate buffer (pH 7.5), 100 mM NaCl; boiled 5 min, cooled to promote hetero-oligomerization; bound to NeutrAvidin beads at 4 °C for 2 h; eluted with 80% acetic acid; peptides quantified by reverse-phase HPLC; result as ratio of peptide pulled down to biotinylated p53TD
Settings: both partners purified

B1: WT p53TD peptide (residues 319-358 of human p53), nonbiotinylated (peptide)
peptide: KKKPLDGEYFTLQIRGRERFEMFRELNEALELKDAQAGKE
notes: p53 tetramerization domain, human, residues 319-358; source: synthetic peptide (solid-phase synthesis, reverse-phase HPLC purified)
ratio of peptide pulled down to biotinylated p53TD: 0.81
